Source: patent US10946092 (BEIJING MABWORKS BIOTECH, dated 2021)
Read-outs that look alike come from different tables or passages of the source.

T1: Human PBMC
T1 chain: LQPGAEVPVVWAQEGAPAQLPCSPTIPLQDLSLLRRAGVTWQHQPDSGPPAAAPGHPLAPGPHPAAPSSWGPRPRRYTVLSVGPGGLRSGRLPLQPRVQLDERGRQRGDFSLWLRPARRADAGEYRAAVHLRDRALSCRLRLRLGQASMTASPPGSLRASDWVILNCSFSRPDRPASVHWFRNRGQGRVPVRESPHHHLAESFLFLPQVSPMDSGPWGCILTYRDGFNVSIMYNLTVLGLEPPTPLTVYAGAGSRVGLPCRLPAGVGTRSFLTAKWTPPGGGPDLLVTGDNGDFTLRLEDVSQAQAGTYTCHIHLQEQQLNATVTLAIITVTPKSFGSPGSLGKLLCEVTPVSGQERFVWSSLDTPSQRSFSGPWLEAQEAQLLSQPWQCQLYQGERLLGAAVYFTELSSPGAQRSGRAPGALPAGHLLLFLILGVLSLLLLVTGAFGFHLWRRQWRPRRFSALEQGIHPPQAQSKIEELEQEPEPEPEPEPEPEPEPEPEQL

T2: recombinant human LAG3(ECD)-his (Sino Biological, Cat #: 16498-H08H) (human, UniProt P18627 23-450)
T2 construct: extracellular domain; Bought protein; not shown: his tag
T2 sequence (looked up): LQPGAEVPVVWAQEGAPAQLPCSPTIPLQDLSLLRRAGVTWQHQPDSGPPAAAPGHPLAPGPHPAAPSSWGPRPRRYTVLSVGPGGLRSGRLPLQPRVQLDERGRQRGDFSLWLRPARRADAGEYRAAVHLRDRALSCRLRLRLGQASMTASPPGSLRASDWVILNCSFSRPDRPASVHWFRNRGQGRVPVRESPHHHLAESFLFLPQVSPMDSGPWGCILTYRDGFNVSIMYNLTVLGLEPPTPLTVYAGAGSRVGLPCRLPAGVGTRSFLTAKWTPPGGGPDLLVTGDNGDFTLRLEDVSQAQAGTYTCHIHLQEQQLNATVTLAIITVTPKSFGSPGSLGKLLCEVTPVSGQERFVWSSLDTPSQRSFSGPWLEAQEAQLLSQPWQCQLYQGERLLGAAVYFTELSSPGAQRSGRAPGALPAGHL

T3: human LAG3 expressed on HEK293A cells (human, UniProt P18627 23-525)
T3 construct: whole, on cells; also called HEK293A/human LAG3
T3 sequence (looked up): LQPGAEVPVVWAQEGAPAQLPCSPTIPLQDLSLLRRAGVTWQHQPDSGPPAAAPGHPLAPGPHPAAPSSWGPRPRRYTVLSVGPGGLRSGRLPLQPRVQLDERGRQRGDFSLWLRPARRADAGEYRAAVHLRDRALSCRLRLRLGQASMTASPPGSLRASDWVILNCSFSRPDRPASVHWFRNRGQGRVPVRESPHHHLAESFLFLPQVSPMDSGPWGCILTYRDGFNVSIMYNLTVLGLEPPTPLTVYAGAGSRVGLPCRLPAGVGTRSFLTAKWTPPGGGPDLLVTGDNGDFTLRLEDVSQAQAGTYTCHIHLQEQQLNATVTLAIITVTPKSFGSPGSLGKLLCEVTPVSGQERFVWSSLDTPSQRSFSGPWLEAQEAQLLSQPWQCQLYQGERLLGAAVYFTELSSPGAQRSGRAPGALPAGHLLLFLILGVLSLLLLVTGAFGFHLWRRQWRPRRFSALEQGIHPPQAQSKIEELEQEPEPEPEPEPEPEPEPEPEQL

T4: hLAG-3-hIg fusion protein (human LAG-3 extracellular domain fused to human Fc); Sino Biological, Cat #: … (human, UniProt P18627 23-450)
T4 construct: extracellular domain; Bought protein; also called LAG3 fusion protein; human LAG3(ECD)-hFc; not shown: human Fc
T4 sequence (looked up): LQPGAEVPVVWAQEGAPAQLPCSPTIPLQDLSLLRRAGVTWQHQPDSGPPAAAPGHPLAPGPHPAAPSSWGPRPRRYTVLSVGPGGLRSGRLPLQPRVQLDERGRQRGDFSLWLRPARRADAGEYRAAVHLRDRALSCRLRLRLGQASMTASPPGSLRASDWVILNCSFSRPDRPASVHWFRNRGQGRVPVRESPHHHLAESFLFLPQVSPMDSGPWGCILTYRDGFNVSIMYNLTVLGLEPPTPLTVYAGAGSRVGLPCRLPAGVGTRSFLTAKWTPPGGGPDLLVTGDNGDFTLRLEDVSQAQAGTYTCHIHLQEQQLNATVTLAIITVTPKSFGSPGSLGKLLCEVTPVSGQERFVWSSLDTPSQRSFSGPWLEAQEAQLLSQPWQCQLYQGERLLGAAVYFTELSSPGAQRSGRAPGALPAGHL


Assays:
[1] = molecular target: T1, Human PBMC; experiment: FACS on activated human PBMC
Experimental: Briefly, 10^5 HEK293A cells in 50 μl PBS buffers were seeded into each well of the 96-well plates and then added with 50 μl of serially diluted anti-LAG3 antibodies (5-fold dilution, starting from 40 μg/ml). After incubated at 4° C. for 1 hour, plates were washed 3 times with PBST. Then, an APC coupled Goat Anti-Mouse IgG (BioLegend, US, Cat #: 405308) diluted 500× was added to the plates. After incubation at 4° C. for 1 hour, the plates were washed with PBS for 3 times and then cell fluorescence was monitored using a FACS machine (BD).
Further, the binding activities of the two antibodies to actived human PBMCs were investigated by FACS. Briefly, human PBMCs were collected by density gradient centrifugation and then re-suspended in the complete medium (RPMI medium+10% FBS+ human IL-2 (20 IU/ml, R&D, Cat #: 202-IL)+ Dynabeads™ Human T-Activator CD3/CD28 (Gibco, Cat #: 11132D)) at 37° C. under 5% CO_2 in a humidified incubator for 2 days to get activated T cells. The cells were then collected and tested by FACS as described in Example 6.

[2] = molecular target: T2, recombinant human LAG3(ECD)-his (Sino …); experiment: SPR (BIAcore 8K), human LAG3(ECD)-his coupled to chip, antibody injected, 1:1 Langmuir
Experimental: (§1) Serially diluted antibodies at concentrations ranging from 0.3 μM to 10 μM were injected into the SPR running buffer (HBS-EP buffer, pH7.4, GE Life Sciences; US; Cat #: BR-1006-69) at 30 μL/minute. The binding capacities were calculated with the RUs of blank controls subtracted. The association rate (Ka) and dissociation rate (Kd) were calculated using the one-to-one Langmuir binding model (BIA Evaluation Software, GE Life Sciences). The equilibrium dissociation constant K_D was calculated as the kd/ka ratio.

[3] = molecular target: T5, monkey LAG3(ECD)-mFc protein (ACRO, Cat #: LA3-052A0) (monkey); experiment: SPR (BIAcore 8K), monkey LAG3(ECD)-mFc coupled to chip, antibody injected, 1:1 Langmuir
T5 construct: extracellular domain; Bought protein
Experimental: as §1

[4] = molecular target: T2, recombinant human LAG3(ECD)-his (Sino …); experiment: SPR (BIAcore 8K), human LAG3(ECD)-his coupled to chip, antibody injected, 1:1 Langmuir; printed a second time as 'Ka values', read as Kd
Experimental: as §1

[5] = molecular target: T3, human LAG3 expressed on HEK293A cells; experiment: FACS on HEK293A cells expressing human LAG3
[6] = molecular target: T4, hLAG-3-hIg fusion protein (human LAG-3 …); experiment: FACS blocking assay: hLAG-3-hIg preincubated with the antibody, then binding to MHC II on Daudi cells
[7] = molecular target: T3, human LAG3 expressed on HEK293A cells; experiment: FACS on HEK293A cells expressing human LAG3; remark: listed apart in the source
[8] = molecular target: T4, hLAG-3-hIg fusion protein (human LAG-3 …); experiment: FACS blocking assay: hLAG-3-hIg preincubated with the antibody, then binding to MHC II on Daudi cells; remark: listed apart in the source

Row | Binder | binding result [5] | binding result [6] | binding result [7] | binding result [8] | further results
1 | humanized antibody 101F4H2L2 (antibody, human IgG4 S228P, kappa, V domains shown, Human IgG4 (S228P)/kappa) VH: QVQLVQSGAEVKKPGASVKVSCKVSGYTFTDYEMHWVRQAPGKGLEWMGAIDPETGGIVYNQRFKGRVTLTADTSTDTAYMELSSLRSEDTAVYYCATAGWGYWGQGTTVTVSS VL: DIQMTQSPSSLSASVGDRVTITCKASQDINSYLSWYQQKPGKAPKLLIYRANRLLDGVPSRFSGSGSGQDYTLTISSLQPEDFATYYCLQYDEFPFTFGQGTKLEIKR |  |  |  |  | EC50 (read off the curve) [1]: ~0.1 µg/mL; Kd [2]: 414000 pM; kon [2]: 960000 M⁻¹ s⁻¹; Kd [3]: 488 pM; koff [4]: 0.398 s⁻¹
2 | humanized antibody 101F4H0L0 (antibody, human IgG4 S228P, kappa, V domains shown, Human IgG4 (S228P)/kappa) VH: QVQLVQSGAEVKKPGASVKVSCKVSGYTFTDYEMHWVRQAPGKGLEWMGAIDPETGGIVYNQRFKGRVTMTEDTSTDTAYMELSSLRSEDTAVYYCATAGWGYWGQGTTVTVSS VL: DIQMTQSPSSLSASVGDRVTITCKASQDINSYLSWYQQKPGKAPKLLIYRANRLLDGVPSRFSGSGSGTDFTLTISSLQPEDFATYYCLQYDEFPFTFGQGTKLEIKR | binds | binds |  |  | 
3 | humanized antibody 101F4H3L3 (antibody, human IgG4 S228P, kappa, V domains shown, Human IgG4 (S228P)/kappa) VH: QVQLVQSGAEVKKPGASVKVSCKASGYTFTDYEMHWVRQAPGKGLEWMGAIDPETGGIVYNQRFKGRATLTADTSTDTAYMELSSLRSEDTAVYYCAGAGWGYWGQGTTVTVSS VL: DIQITQSPSSLSASVGDRVTITCKASQDINSYLSWFQQKPGKAPKLLIYRANRLLDGVPSRFSGSGSGQDYTLTISSLQPEDFATYYCLQYDEFPFTFGQGTKLEIKR | binds | binds |  |  | 
4 | humanized antibody 101F4H3L2 (antibody, human IgG4 S228P, kappa, V domains shown, Human IgG4 (S228P)/kappa) VH: QVQLVQSGAEVKKPGASVKVSCKASGYTFTDYEMHWVRQAPGKGLEWMGAIDPETGGIVYNQRFKGRATLTADTSTDTAYMELSSLRSEDTAVYYCAGAGWGYWGQGTTVTVSS VL: DIQMTQSPSSLSASVGDRVTITCKASQDINSYLSWYQQKPGKAPKLLIYRANRLLDGVPSRFSGSGSGQDYTLTISSLQPEDFATYYCLQYDEFPFTFGQGTKLEIKR | binds | binds |  |  | 
5 | humanized antibody 101F4H2L3 (antibody, human IgG4 S228P, kappa, V domains shown, Human IgG4 (S228P)/kappa) VH: QVQLVQSGAEVKKPGASVKVSCKVSGYTFTDYEMHWVRQAPGKGLEWMGAIDPETGGIVYNQRFKGRVTLTADTSTDTAYMELSSLRSEDTAVYYCATAGWGYWGQGTTVTVSS VL: DIQITQSPSSLSASVGDRVTITCKASQDINSYLSWFQQKPGKAPKLLIYRANRLLDGVPSRFSGSGSGQDYTLTISSLQPEDFATYYCLQYDEFPFTFGQGTKLEIKR | binds | binds |  |  | 
6 | humanized antibody 134G10H2L2 (antibody, human IgG4 S228P, kappa, V domains shown, Human IgG4 (S228P)/kappa) VH: EVQLVESGGGLVKPGGSLRLSCAASGFTFSSFGMSWVRQAPGKRLEWVSIISSGGTYTFYPDILKGRFTISRDNAKNSLYLQMNSLRAEDTAVYYCARVYSDYDGRFDYWGQGTLVTVSS VL: DIVMTQSPSSLAVSLGERATINCKSSQSLLNSGNQKNYLAWYQQKPGQPPKLLIYGASTRESGVPDRFSGSGSGTDFTLTISSLQAEDVAVYYCQNDHSYPLTFGAGTKLEIKR |  |  | binds | binds | 
7 | humanized antibody 134G10H0L0 (antibody, human IgG4 S228P, kappa, V domains shown, Human IgG4 (S228P)/kappa) VH: EVQLVESGGGLVKPGGSLRLSCAASGFTFSSFGMSWVRQAPGKGLEWVSIISSGGTYTFYPDILKGRFTISRDNAKNSLYLQMNSLRAEDTAVYYCARVYSDYDGRFDYWGQGTLVTVSS VL: DIVMTQSPDSLAVSLGERATINCKSSQSLLNSGNQKNYLAWYQQKPGQPPKLLIYGASTRESGVPDRFSGSGSGTDFTLTISSLQAEDVAVYYCQNDHSYPLTFGQGTKLEIKR |  |  | binds | binds | 
8 | humanized antibody 134G10H3L2 (antibody, human IgG4 S228P, kappa, V domains shown, Human IgG4 (S228P)/kappa; also called 134G10H3VL2) VH: EVQLVESGGGLVKPGGSLRLSCAASGFTFSSFGMSWVRQAPGKRLEWVGIISSGGTYTFYPDILKGRFTISRDNAKNSLYLQMNSLRAEDTAVYYCARVYSDYDGRFDYWGQGTLVTVSS VL: DIVMTQSPSSLAVSLGERATINCKSSQSLLNSGNQKNYLAWYQQKPGQPPKLLIYGASTRESGVPDRFSGSGSGTDFTLTISSLQAEDVAVYYCQNDHSYPLTFGAGTKLEIKR |  |  | binds | binds | 
9 | humanized antibody 134G10H3L3 (antibody, human IgG4 S228P, kappa, V domains shown, Human IgG4 (S228P)/kappa) VH: EVQLVESGGGLVKPGGSLRLSCAASGFTFSSFGMSWVRQAPGKRLEWVGIISSGGTYTFYPDILKGRFTISRDNAKNSLYLQMNSLRAEDTAVYYCARVYSDYDGRFDYWGQGTLVTVSS VL: DIVMTQSPSSLAVSLGERATINCKSSQSLLNSGNQKNYLAWYQQKPGQPPKLLIYGASTRESGVPDRFTGSGSGTDFTLTISSLQAEDVAVYYCQNDHSYPLTFGAGTKLEIKR |  |  | binds | binds | 
10 | humanized antibody 134G10H2L3 (antibody, human IgG4 S228P, kappa, V domains shown, Human IgG4 (S228P)/kappa) VH: EVQLVESGGGLVKPGGSLRLSCAASGFTFSSFGMSWVRQAPGKRLEWVSIISSGGTYTFYPDILKGRFTISRDNAKNSLYLQMNSLRAEDTAVYYCARVYSDYDGRFDYWGQGTLVTVSS VL: DIVMTQSPSSLAVSLGERATINCKSSQSLLNSGNQKNYLAWYQQKPGQPPKLLIYGASTRESGVPDRFTGSGSGTDFTLTISSLQAEDVAVYYCQNDHSYPLTFGAGTKLEIKR |  |  |  |  | Kd [2]: 262 pM; kon [2]: 166000 M⁻¹ s⁻¹; Kd [3]: 0.201 pM
